Results as given in US20040052799A1, “Nucleic acid and amino acid sequences relating to Helicobacter pylori for diagnostics and therapeutics” (Astra Aktiebolag, priority 1996, published 2004).

Tested on: N[C@@H](CC=O)C(=O)O
Test: purified protein, by the assay type
Conditions: other: pH 8.0

Substance: H. pylori Asd (Helicobacter pylori J99)
- Km: 54 µM
